Values of other authors as cited in publication PMC8100458.

What was measured:
[1] = target: Asef peptide 179-193 (Homo sapiens); test: FP competition
[2] = target: Asef peptide 187-192 (Homo sapiens); test: FP competition
[3] = target: Asef peptide 183-190 (Homo sapiens); test: FP competition
[4] = target: Asef peptide 181-192 (Homo sapiens); test: FP competition
[5] = target: Asef (Homo sapiens) (UniProt Q9NR80); test: ITC
UniProt Q9NR80, sequence (Q9NR80 whole entry): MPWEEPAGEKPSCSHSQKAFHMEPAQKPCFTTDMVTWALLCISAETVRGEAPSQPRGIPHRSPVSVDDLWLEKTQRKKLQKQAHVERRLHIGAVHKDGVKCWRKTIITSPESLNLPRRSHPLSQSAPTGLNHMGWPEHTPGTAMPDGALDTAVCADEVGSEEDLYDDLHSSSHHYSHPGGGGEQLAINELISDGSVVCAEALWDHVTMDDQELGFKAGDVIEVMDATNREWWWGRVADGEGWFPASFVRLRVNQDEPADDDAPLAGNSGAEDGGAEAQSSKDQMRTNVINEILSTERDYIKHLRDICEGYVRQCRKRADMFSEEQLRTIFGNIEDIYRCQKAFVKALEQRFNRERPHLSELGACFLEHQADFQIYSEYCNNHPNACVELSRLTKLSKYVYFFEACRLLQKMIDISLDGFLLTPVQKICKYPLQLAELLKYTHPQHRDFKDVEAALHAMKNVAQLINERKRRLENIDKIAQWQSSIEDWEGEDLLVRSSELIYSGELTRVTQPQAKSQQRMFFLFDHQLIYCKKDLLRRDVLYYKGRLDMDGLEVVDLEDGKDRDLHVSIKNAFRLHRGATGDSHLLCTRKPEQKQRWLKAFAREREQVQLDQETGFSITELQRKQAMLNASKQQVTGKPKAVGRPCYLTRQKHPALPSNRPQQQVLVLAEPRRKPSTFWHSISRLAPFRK

APC (from UniProt P25054)
Ki [1]: 17.1 µM
Ki [2]: > 300 µM
Ki [3]: > 300 µM
Ki [4]: 49.1 µM
Kd [5]: 0.0178 µM
